Assay results from US11459387B2, “Anti-CD147 antibody” (DAIICHI SANKYO COMPANY, LIMITED, priority 2017, dated 2022).

Legend:
[1] = tested on: human liver cell line HepG2; assay: HepG2 liver cancer model in NOD-scid mice; type: in vivo; conditions: qD1x9 po, n=5; for Average tumor volume: NOD-scid mice
Experimental: 5×10^6 cells of the human liver cell line HepG2 were suspended in PBS containing 50% Matrigel (Corning Inc., Cat. 354234), and the suspension was inoculated subcutaneously into the axilla of 4 week-old female NOD-scid mice (NOD. CB17-Prkdc/J, purchased from CHARLES RIVER LABORATORIES JAPAN, INC). […] As a control drug, sorafenib (Nexavar tablets 200 mg, Bayer AG), which is a therapeutic agent for liver cancer, was dissolved in a PEG-35 castor oil (Cremophor EL, NACALAI TESQUE, INC., Cat. 09727-14) ethanol solvent according to the reference (Chang et. al., Cancer Chem. Thera. Pharm., 2007) attached to Nexavar tablets, and the solution was orally administered to cancer-bearing mice at 30 mg/kg or 90 mg/kg 9, 10, 11, 12, 13, 16, 17, and 18 days after the inoculation (n=5). The major axis and the minor axis of the inoculated tumor were measured twice a week using an electronic digital caliper (available from MITUTOYO CORPORATION) to calculate the tumor volume by the following formula. Tumor volume (mm^3)=½×minor axis (mm)×minor axis (mm)×major axis (mm)

[2] = tested on: human peripheral blood mononuclear cells; assay: Cytokine release assay using human peripheral blood; type: cell-based; conditions: 6 donors
Source text: In some antibodies such as OKT3 and TGN1412, administration of the therapeutic antibodies causes an increase in cytokines in the blood by activating immune cells, thereby causing serious cytokine release syndrome (Gaston, R., Kidney International, 1991, 141-148; Suntharalingam, G., et al., N. Engl. J. Med. 2006, 1018-1028). It has been reported that some CD147 antibodies act on immune cells, having an action of increasing production of interferon gamma or interleukin-4 (Hu, J., et al., J. Cell. Mol. Med., 2010, 2132-2143). The toxicity of antibody drugs due to cytokine release syndrome can be predicted by a cytokine release assay using peripheral blood (Vessillier, S. et al., J. Immunolol. Methods, 2015, 43-52).

[3] = tested on: human pancreatic line PANC-1; assay: Antibody screening by in-vivo antitumor efficacy, PANC-1 xenograft in NOD-scid mice
Experimental: 1×10^7 cells of human pancreatic line PANC-1 were suspended in PBS, and the suspension was inoculated subcutaneously into the axilla of NOD-scid mice (CHARLES RIVER LABORATORIES JAPAN, INC., NOD. CB17-Prkdc/J). […] The major axis and the minor axis of the inoculated tumor were measured twice a week using an electronic digital caliper (available from MITUTOYO CORPORATION) to calculate the tumor volume by the following formula. Tumor volume (mm^3)=½×minor axis (mm)×minor axis (mm)×major axis (mm)

[4] = tested on: human pancreatic line MIA PaCa-2; assay: ADCC activity, 51Cr release, human PBMC effector cells; type: cell-based; conditions: antibody 0.5 or 5 μg/ml; MIA PaCa-2 target cells
Experimental: Antibody-dependent cellular cytotoxicity (ADCC) activity can be measured by a ^51Cr release assay method, which measures cell death caused when immune cells having effector activity, an antibody and ^51Cr-labeled target cells are brought into contact. The ADCC activity of the anti-human CD147 antibody of the present invention is measured as follows. Regarding the ADCC activity of the anti-human CD147 antibody, human peripheral blood mononuclear cells (PBMC) are used as effector cells, and a CD147-positive human cancer cell line (for example, pancreatic cancer cell line MIA PaCa-2) is used as ADCC target cells. Cancer cells labeled with a radioisotope, ^51Cr, and the antibody to be evaluated are treated at a concentration of 0.5 or 5 μg/ml at 4° C. for 30 minutes, PBMC separated from human peripheral blood is added at 20 times the proportion of cancer cells, and then cells are cultured for 4 hours at 37° C. in the presence of 5% CO2. […] The measured value of ^51Cr released from ^51Cr-labeled cancer cells treated with Triton-100 is designated as a “Maximum release value” and the measured value of ^51Cr released from ^51Cr-labeled cancer cells treated with antibody in the absence of PBMC is designated as a “Spontaneous release value”. With these values, % Specific release is calculated from the following formula. […]

[5] = tested on: human pancreatic line BxPC-3; assay: SMAD4-negative BxPC-3 pancreatic cancer-bearing model in BALB/c-nu mice; type: in vivo; conditions: antibody 10 mg/kg ip 8, 15 and 22 days after the inoculation; BALB/c-nu mice
Source text: The transcription factor, SMAD4, is known as one of the molecules important for activation of SMAD signaling (Zang, et al., Current Biology, 270-276, 1997). It is known that SMAD signaling is partially impaired due to genetic defects of SMAD4 in some pancreatic cancers (Hahn, et al., Science, 350-353, 1996). […] 2.5×10^6 cells of human pancreatic line BxPC-3 (ATCC, Cat. CRL-1687) were suspended in PBS containing […] (Corning Inc., Cat. 354234), and the suspension was inoculated subcutaneously into the axilla of 6 week-old female BALB/c-nu mouse (CAnN. Cg-Foxn1nu/CrlCrlj, purchased from CHARLES RIVER LABORATORIES JAPAN, INC). […] As a control drug, gemcitabine (Eli Lilly Japan K.K., Gemzar®) that is a therapeutic agent for pancreatic cancer was administered to mice bearing tumor via the tail vein at 200 mg/kg 8, 15, 22 days after the inoculation (n=5). The major axis and the minor axis of the inoculated tumor were measured twice a week using an electronic digital caliper (available from MITUTOYO CORPORATION) to calculate the tumor volume by the following formula. Tumor volume (mm^3)=½×minor axis (mm)×minor axis (mm)×major axis (mm)

[6] = tested on: human pancreatic line MIA PaCa-2; assay: CDC activity with rabbit complement, CellTiter-Glo; type: cell-based; conditions: antibody 10 μg/ml; rabbit complement 7.5%; 3 hours
Experimental: Complement-dependent cytotoxicity (CDC) activity can be evaluated by measuring cell death caused when complement contained in blood, an antibody and target cells are brought into contact. The CDC activity of the anti-human CD147 antibody of the present invention is measured as follows. The complement-dependent cytotoxicity activity (CDC activity) of the anti-human CD147 antibody is evaluated using human pancreatic cell line MIA PaCa-2 as target cells. Commercially available rabbit complement (Low Tox-M Rabbit Complement, […] LABORATORIES LIMITED, Cat. CL3051) is used as the complement. […] Target cells are treated with the antibody to be evaluated and the negative control antibody at concentrations of 0, 0.1, 1 or 10 μg/ml for 1 hour at 4° C., the rabbit complement is added in such a manner that the final concentration is 7.5%, the resultant mixture is heated at 37° C. in the presence of 5% CO2 for 3 hours, and then intracellular ATP contained in living cells is measured using the CellTiter-Glo Lumimescent Cell Viability Assay (Promega, Cat. G7572). Luminescent signals obtained using the CellTiter-Glo Lumimescent Cell Viability Assay are quantitatively determined using an EnVision 2104 Multilabel Reader (Perkin Elmer). The measurement is performed three times and the average value and the standard deviation are calculated. […]

CNC(=O)c1cc(Oc2ccc(NC(=O)Nc3ccc(Cl)c(C(F)(F)F)c3)cc2)ccn1 [Sorafenib, sorafenib, reference compound]
Number of examples of complete tumor regression ([1]; 30 mg/kg): 0/5 | tumor growth inhibition rate ([1]; 30 mg/kg): 18% | Average tumor volume ([1]; 30 mg/kg): 1425 mm^3 | Number of examples of complete tumor regression ([1]; 90 mg/kg): 0/5 | tumor growth inhibition rate ([1]; 90 mg/kg): 28% | Average tumor volume ([1]; 90 mg/kg): 1252 mm^3

anti-human CD3 antibody (OKT3): comparative antibody in the cytokine release assay (BioLegend Cat. No317326) [reference compound]
acceleration of cell growth in human peripheral blood mononuclear cells [2]: acceleration of cell growth | cytokine release (TNFα, INF-γ, IL-2, IL-6, IL-8, IL-10, MIP-1α) ([2]; human peripheral blood): acceleration of cytokine release

B1: LN22R8: mouse anti-human CD147 monoclonal antibody, Mouse IgG3; light chain variable region SEQ ID NO: 8, heavy chain variable region SEQ ID NO: 10 (antibody, listed as Mus musculus, V domains shown)
VH: QIQLVQSGPELKKPGETVKISCKASGYTFTNYGMNWVKQAPGKGLKWMGWINTYTGEPTYADDFKGRFAFSLETSASTAYLQINNLKNEDTATYFCARGGYGNYGAGAMDYWGQGTSVTVSS
VL: DIQMTQSPSSLSASLGERVSLTCRASLEISGFLSWLQQKPDGTIKRLIYAASILDSGVPKRFSGSRSGSDYSLTISSLESEDFADYYCLQYASYPWTFGGGTKLEIKR
tumor growth inhibition rate ([3]; 10 mg/kg ip administration group, 48th day after the inoculation (final measurement date), NOD-scid mice): 50% | in vivo anti-tumor effect ([3]; antitumor efficacy of Example 1)-7 (PANC-1 xenograft, 10 mg/kg) as listed in Table 3): 50% | ADCC activity (in words) [4]: no ADCC activity | sensitivity of BxPC-3 tumor (in words) [5]: resistant | living cells (CDC activity, luminescence of non-treated cells = 100%) [6]: 41.1%
